{"source": "paper PMC3887093", "parents": {"B1": {"name": "DBP-RII with C-terminally fused GFP, wild type, on the surface of HEK293T cells [Plasmodium vivax] / Duffy antigen/receptor for chemokines (DARC) on human red blood cells [human (endogenous in RBCs)] (parent)", "chain 1": "ASNTVMKNCNYKRKRRERDWDCNTKKDVCIPDRRYQLCMKELTNLVNNTDTNFHRDITFRKLYLKRKLIYDAAVEGDLLLKLNNYRYNKDFCKDIRWSLGDFGDIIMGTDMEGIGYSKVVENNLRSIFGTDEKAQQRRKQWWNESKAQIWTAMMYSVKKRLKGNFIWICKLNVAVNIEPQIYRWIREWGRDYVSELPTEVQKLKEKCDGKINYTDKKVCKVPPCQNACKSYDQWITRKKNQWDVLSNKFISVKNAEKVQTAGIVTPYDILKQELDEFNEVAFENEINKRDGAYIELCVCSVEEAKKNTQEVVTNVDN", "chain 2": "MGNCLHRAELSPSTENSSQLDFEDVWNSSYGVNDSFPDGDYGANLEAAAPCHSCNLLDDSALPFFILTSVLGILASSTVLFMLFRPLFRWQLCPGWPVLAQLAVGSALFSIVVPVLAPGLGSTRSSALCSLGYCVWYGSAFAQALLLGCHASLGHRLGAGQVPGLTLGLTVGIWGVAALLTLPVTLASGASGGLCTLIYSTELKALQATHTVACLAIFVLLPLGLFGAKGLKKALGMGPGPWMNILWAWFIFWWPHGVVLGLDFLVRSKLLLLSTCLAQQALDLLLNLAEALAILHCVATPLLLALFCHQATRTLLPSLPLPEGWSSHLDTLGSKS"}}, "data": [{"variants_of": "B1", "assay": "red blood cell rosetting (RBC binding) assay with DBP-RII-GFP expressed on HEK293 cells", "details": "parent: 100, read off a plot", "units": {"percent of parent": "% Binding"}, "values": [{"variant": "chain 1 A73L", "percent of parent": 0}, {"variant": "chain 1 D56R", "percent of parent": 42}, {"variant": "chain 1 D56W", "percent of parent": 59}, {"variant": "chain 1 I57R", "percent of parent": 72}, {"variant": "chain 1 Q148D", "percent of parent": 18}, {"variant": "chain 1 Q148Y", "percent of parent": 66}, {"variant": "chain 1 T58W", "percent of parent": 55}, {"variant": "chain 1 Y155A", "percent of parent": 0}, {"variant": "chain 1 Y155L", "percent of parent": 0}]}]}
